In IntAct's records for PubMed 31515488:

B1: Zinc finger protein Aiolos (Homo sapiens), Q9UKT9 (parent)
chain: MEDIQTNAELKSTQEQSVPAESAAVLNDYSLTKSHEMENVDSGEGPANEDEDIGDDSMKVKDEYSERDENVLKSEPMGNAEEPEIPYSYSREYNEYENIKLERHVVSFDSSRPTSGKMNCDVCGLSCISFNVLMVHKRSHTGERPFQCNQCGASFTQKGNLLRHIKLHTGEKPFKCHLCNYACQRRDALTGHLRTHSVEKPYKCEFCGRSYKQRSSLEEHKERCRTFLQSTDPGDTASAEARHIKAEMGSERALVLDRLASNVAKRKSSMPQKFIGEKRHCFDVNYNSSYMYEKESELIQTRMMDQAINNAISYLGAEALRPLVQTPPAPTSEMVPVISSMYPIALTRAEMSNGAPQELEKKSIHLPEKSVPSERGLSPNNSGHDSTDTDSNHEERQNHIYQQNHMVLSRARNGMPLLKEVPRSYELLKPPPICPRDSVKVINKEGEVMDVYRCDHCRVLFLDYVMFTIHMGCHGFRDPFECNMCGYRSHDRYEFSSHIARGEHRALLK
partner: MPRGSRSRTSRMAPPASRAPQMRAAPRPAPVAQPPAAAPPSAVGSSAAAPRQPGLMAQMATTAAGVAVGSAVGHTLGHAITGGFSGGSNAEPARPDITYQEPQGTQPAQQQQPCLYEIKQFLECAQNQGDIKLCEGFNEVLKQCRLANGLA
B2: MYG1 exonuclease (Homo sapiens), Q9HB07 (parent)
chain: MGHRFLRGLLTLLLPPPPLYTRHRMLGPESVPPPKRSRSKLMAPPRIGTHNGTFHCDEALACALLRLLPEYRDAEIVRTRDPEKLASCDIVVDVGGEYDPRRHRYDHHQRSFTETMSSLSPGKPWQTKLSSAGLIYLHFGHKLLAQLLGTSEEDSMVGTLYDKMYENFVEEVDAVDNGISQWAEGEPRYALTTTLSARVARLNPTWNHPDQDTEAGFKRAMDLVQEEFLQRLDFYQHSWLPARALVEEALAQRFQVDPSGEIVELAKGACPWKEHLYHLESGLSPPVAIFFVIYTDQAGQWRIQCVPKEPHSFQSRLPLPEPWRGLRDEALDQVSGIPGCIFVHASGFIGGHRTREGALSMARATLAQRSYLPQIS
B3: Ras-related protein Rab-39B (Homo sapiens), Q96DA2 (parent)
chain: MEAIWLYQFRLIVIGDSTVGKSCLIRRFTEGRFAQVSDPTVGVDFFSRLVEIEPGKRIKLQIWDTAGQERFRSITRAYYRNSVGGLLLFDITNRRSFQNVHEWLEETKVHVQPYQIVFVLVGHKCDLDTQRQVTRHEAEKLAAAYGMKYIETSARDAINVEKAFTDLTRDIYELVKRGEITIQEGWEGVKSGFVPNVVHSSEEVVKSERRCLC
B4: Zinc finger protein 774 (Homo sapiens), Q6NX45 (parent)
chain: MWLGTSGKSGLPGHCLENPLQECHPAQLEEWALKGISRPSVISQPEQKEEPWVLPLQNFEARKIPRESHTDCEHQVAKLNQDNSETAEQCGTSSERTNKDLSHTLSWGGNWEQGLELEGQHGTLPGEGQLESFSQERDLNKLLDGYVGEKPMCAECGKSFNQSSYLIRHLRTHTGERPYTCIECGKGFKQSSDLVTHRRTHTGEKPYQCKGCEKKFSDSSTLIKHQRTHTGERPYECPECGKTFGRKPHLIMHQRTHTGEKPYACLECHKSFSRSSNFITHQRTHTGVKPYRCNDCGESFSQSSDLIKHQRTHTGERPFKCPECGKGFRDSSHFVAHMSTHSGERPFSCPDCHKSFSQSSHLVTHQRTHTGERPFKCENCGKGFADSSALIKHQRIHTGERPYKCGECGKSFNQSSHFITHQRIHLGDRPYRCPECGKTFNQRSHFLTHQRTHTGEKPFHCSKCNKSFRQKAHLLCHQNTHLI
B5: Mediator of RNA polymerase II transcription subunit 20 (Homo sapiens), Q9H944 (parent)
chain: MGVTCVSQMPVAEGKSVQQTVELLTRKLEMLGAEKQGTFCVDCETYHTAASTLGSQGQTGKLMYVMHNSEYPLSCFALFENGPCLIADTNFDVLMVKLKGFFQSAKASKIETRGTRYQYCDFLVKVGTVTMGPSARGISVEVEYGPCVVASDCWSLLLEFLQSFLGSHTPGAPAVFGNRHDAVYGPADTMVQYMELFNKIRKQQQVPVAGIR
partner: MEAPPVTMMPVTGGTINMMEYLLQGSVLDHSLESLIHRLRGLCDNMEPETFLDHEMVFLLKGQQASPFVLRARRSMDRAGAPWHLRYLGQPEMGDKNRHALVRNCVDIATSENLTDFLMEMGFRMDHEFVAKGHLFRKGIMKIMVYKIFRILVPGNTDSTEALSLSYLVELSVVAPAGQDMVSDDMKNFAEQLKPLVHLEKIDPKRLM
B6: "Peptide-N(4)-(N-acetyl-beta-glucosaminyl)asparagine amidase" (Homo sapiens), Q96IV0 (parent)
chain: MAAAALGSSSGSASPAVAELCQNTPETFLEASKLLLTYADNILRNPNDEKYRSIRIGNTAFSTRLLPVRGAVECLFEMGFEEGETHLIFPKKASVEQLQKIRDLIAIERSSRLDGSNKSHKVKSSQQPAASTQLPTTPSSNPSGLNQHTRNRQGQSSDPPSASTVAADSAILEVLQSNIQHVLVYENPALQEKALACIPVQELKRKSQEKLSRARKLDKGINISDEDFLLLELLHWFKEEFFHWVNNVLCSKCGGQTRSRDRSLLPSDDELKWGAKEVEDHYCDACQFSNRFPRYNNPEKLLETRCGRCGEWANCFTLCCRAVGFEARYVWDYTDHVWTEVYSPSQQRWLHCDACEDVCDKPLLYEIGWGKKLSYVIAFSKDEVVDVTWRYSCKHEEVIARRTKVKEALLRDTINGLNKQRQLFLSENRRKELLQRIIVELVEFISPKTPKPGELGGRISGSVAWRVARGEMGLQRKETLFIPCENEKISKQLHLCYNIVKDRYVRVSNNNQTISGWENGVWKMESIFRKVETDWHMVYLARKEGSSFAYISWKFECGSVGLKVDSISIRTSSQTFQTGTVEWKLRSDTAQVELTGDNSLHSYADFSGATEVILEAELSRGDGDVAWQHTQLFRQSLNDHEENCLEIIIKFSDL

Variants of: B1
Details: with chch2_human CHCHD2, Q9Y6H1

effect of a mutation on the interaction | Variant
with no effect | N119D

Variants of: B2
Details: with atrap_human AGTRAP

effect of a mutation on the interaction | Variant
with no effect | R188Q
with no effect | R243Q

Variants of: B3
Details: with rufy1_human RUFY1, Q96T51
Chain of rufy1_human RUFY1, Q96T51 (Q96T51 whole entry): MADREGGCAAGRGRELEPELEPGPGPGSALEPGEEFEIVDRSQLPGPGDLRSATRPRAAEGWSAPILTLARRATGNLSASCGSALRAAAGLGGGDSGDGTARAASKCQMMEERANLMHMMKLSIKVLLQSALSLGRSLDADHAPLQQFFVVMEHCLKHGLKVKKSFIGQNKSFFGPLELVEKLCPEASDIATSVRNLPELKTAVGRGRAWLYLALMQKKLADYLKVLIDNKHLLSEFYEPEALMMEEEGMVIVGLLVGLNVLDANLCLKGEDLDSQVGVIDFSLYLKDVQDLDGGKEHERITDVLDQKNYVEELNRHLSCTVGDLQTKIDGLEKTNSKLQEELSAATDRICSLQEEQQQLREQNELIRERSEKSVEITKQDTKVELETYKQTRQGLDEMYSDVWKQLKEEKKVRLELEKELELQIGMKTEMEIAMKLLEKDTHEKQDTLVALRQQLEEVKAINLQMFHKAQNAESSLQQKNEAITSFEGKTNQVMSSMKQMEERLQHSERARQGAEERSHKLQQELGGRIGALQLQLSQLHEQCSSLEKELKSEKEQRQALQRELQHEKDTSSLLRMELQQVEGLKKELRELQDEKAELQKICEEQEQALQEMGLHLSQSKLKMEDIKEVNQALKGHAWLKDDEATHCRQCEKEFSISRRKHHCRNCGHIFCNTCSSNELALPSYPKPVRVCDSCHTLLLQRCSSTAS

effect of a mutation on the interaction | Variant
disrupting interaction strength | R177S

Variants of: B4
Details: with ldoc1_human LDOC1, O95751
Chain of ldoc1_human LDOC1, O95751 (O95751 whole entry): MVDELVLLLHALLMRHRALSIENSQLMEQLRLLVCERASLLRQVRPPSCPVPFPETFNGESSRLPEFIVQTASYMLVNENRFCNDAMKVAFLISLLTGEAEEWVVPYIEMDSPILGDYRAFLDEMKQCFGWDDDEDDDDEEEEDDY

effect of a mutation on the interaction | Variant
disrupting interaction strength | R469C
with no effect | V147I
with no effect | E183A

Variants of: B4
Details: with trim1_human MID2, Q9UJV3
Chain of trim1_human MID2, Q9UJV3 (Q9UJV3 whole entry): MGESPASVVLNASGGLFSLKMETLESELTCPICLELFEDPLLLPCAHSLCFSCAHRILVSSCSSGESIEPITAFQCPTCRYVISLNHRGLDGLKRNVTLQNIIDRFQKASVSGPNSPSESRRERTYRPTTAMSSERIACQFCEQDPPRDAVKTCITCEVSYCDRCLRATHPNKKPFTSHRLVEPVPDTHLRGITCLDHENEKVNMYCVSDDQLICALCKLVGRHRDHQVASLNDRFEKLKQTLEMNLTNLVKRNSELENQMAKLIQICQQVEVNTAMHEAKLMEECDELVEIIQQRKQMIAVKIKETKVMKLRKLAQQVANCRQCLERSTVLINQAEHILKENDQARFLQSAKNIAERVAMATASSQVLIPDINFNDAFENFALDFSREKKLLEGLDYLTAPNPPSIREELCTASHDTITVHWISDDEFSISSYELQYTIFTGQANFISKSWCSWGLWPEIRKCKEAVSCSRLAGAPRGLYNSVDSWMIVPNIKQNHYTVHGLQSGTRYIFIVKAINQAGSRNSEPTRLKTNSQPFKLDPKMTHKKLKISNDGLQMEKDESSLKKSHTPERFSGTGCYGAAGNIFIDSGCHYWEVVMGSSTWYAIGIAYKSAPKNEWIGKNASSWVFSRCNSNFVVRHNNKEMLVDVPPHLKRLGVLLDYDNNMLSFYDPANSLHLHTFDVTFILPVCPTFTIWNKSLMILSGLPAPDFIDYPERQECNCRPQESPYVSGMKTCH

effect of a mutation on the interaction | Variant
with no effect | P65L

Variants of: B5
Details: with med18_human MED18, Q9BUE0

effect of a mutation on the interaction | Variant
with no effect | A50T

Variants of: B6
Details: with ubql1_human UBQLN1, Q9UMX0
Chain of ubql1_human UBQLN1, Q9UMX0 (Q9UMX0 whole entry): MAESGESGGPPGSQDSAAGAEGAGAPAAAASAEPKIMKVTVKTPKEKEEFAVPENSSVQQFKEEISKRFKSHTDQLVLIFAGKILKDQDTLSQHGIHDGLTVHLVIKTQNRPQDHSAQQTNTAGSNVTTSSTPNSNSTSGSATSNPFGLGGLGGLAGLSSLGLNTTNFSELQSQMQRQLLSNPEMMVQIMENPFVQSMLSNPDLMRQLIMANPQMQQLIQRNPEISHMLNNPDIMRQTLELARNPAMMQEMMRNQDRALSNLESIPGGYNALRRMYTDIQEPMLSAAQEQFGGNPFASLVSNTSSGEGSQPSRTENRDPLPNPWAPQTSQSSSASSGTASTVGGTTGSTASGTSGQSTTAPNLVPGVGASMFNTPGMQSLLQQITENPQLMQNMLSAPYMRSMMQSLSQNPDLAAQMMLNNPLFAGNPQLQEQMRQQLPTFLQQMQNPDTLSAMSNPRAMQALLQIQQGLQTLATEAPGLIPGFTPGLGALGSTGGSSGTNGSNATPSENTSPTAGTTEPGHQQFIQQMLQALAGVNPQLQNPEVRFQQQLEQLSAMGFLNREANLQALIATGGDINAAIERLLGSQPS

effect of a mutation on the interaction | Variant
with no effect | F292L

Variants of: B6
Details: with trad1_human TRAFD1, O14545
Chain of trad1_human TRAFD1, O14545 (O14545 whole entry): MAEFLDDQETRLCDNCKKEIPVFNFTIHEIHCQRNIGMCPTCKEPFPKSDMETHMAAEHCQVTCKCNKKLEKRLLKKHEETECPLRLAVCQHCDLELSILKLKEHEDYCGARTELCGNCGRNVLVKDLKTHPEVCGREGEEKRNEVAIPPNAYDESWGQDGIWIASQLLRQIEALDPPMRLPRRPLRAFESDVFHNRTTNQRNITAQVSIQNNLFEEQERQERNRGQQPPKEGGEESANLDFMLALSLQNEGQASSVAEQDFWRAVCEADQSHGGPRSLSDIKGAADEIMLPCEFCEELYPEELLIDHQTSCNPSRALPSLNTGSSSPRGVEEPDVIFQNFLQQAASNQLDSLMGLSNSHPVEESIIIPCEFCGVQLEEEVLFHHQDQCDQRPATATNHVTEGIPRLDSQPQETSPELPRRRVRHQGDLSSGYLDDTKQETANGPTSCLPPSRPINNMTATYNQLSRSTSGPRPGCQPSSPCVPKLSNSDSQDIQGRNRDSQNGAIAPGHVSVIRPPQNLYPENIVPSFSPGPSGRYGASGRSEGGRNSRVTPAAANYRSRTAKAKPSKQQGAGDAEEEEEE

effect of a mutation on the interaction | Variant
with no effect | F292L
